According to PMC5289633:

Target: Bio-SAP97 (SAP97 with N-terminal tag for in vivo biotinylation) (UniProt Q62696)
Assay: pull-down; streptavidin-sepharose pull-down of biotin-tagged SAP97 or PSD-95 from Triton X-100 extracts (TNE buffer, pH 7.5, 120 mM NaCl, 4°C) of co-transfected HEK293 or HEK293T cells; western blot

UniProt Q62696, sequence (Q62696 whole entry): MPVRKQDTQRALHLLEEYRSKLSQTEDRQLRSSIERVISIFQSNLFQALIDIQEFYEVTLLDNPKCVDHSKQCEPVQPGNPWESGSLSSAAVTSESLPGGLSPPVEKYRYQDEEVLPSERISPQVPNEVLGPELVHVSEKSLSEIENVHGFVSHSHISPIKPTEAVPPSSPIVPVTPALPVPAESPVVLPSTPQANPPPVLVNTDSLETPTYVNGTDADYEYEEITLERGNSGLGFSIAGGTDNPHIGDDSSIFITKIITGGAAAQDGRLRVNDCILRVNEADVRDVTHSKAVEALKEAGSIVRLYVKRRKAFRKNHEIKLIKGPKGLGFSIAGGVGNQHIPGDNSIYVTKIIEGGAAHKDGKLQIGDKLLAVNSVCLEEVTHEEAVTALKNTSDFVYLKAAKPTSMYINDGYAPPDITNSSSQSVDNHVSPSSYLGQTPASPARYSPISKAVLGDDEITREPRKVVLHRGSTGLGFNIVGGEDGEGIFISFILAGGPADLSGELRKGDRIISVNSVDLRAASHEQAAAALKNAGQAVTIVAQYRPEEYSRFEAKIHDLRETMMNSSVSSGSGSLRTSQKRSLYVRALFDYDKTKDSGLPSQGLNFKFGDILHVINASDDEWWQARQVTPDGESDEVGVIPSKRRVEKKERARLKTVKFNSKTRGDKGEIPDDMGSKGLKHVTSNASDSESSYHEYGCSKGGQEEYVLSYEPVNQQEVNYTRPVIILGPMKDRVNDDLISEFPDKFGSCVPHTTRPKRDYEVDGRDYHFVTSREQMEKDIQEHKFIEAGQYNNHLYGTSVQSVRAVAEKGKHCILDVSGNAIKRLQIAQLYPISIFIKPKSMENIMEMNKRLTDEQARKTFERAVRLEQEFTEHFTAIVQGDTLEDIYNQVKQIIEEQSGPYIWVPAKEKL

- percent decrease in association against wt GluA1: 60 to 70%
Substance: N-terminally GFP-tagged GluA1 C893S mutant (receptor)
